Results taken from IntAct's records for PubMed 23273425.

B1: Splicing factor 1 (Homo sapiens), Q15637 (parent)
chain: MATGANATPLDFPSKKRKRSRWNQDTMEQKTVIPGMPTVIPPGLTREQERAYIVQLQIEDLTRKLRTGDLGIPPNPEDRSPSPEPIYNSEGKRLNTREFRTRKKLEEERHNLITEMVALNPDFKPPADYKPPATRVSDKVMIPQDEYPEINFVGLLIGPRGNTLKNIEKECNAKIMIRGKGSVKEGKVGRKDGQMLPGEDEPLHALVTANTMENVKKAVEQIRNILKQGIETPEDQNDLRKMQLRELARLNGTLREDDNRILRPWQSSETRSITNTTVCTKCGGAGHIASDCKFQRPGDPQSAQDKARMDKEYLSLMAELGEAPVPASVGSTSGPATTPLASAPRPAAPANNPPPPSLMSTTQSRPPWMNSGPSESRPYHGMHGGGPGGPGGGPHSFPHPLPSLTGGHGGHPMQHNPNGPPPPWMQPPPPPMNQGPHPPGHHGPPPMDQYLGSTPVGSGVYRLHQGKGMMPPPPMGMMPPPPPPPSGQPPPPPSGPLPPWQQQQQQPPPPPPPSSSMASSTPLPWQQNTTTTTTSAGTGSIPPWQQQQAAAAASPGAPQMQGNPTMVPLPPGVQPPLPPGAPPPPPPPPPGSAGMMYAPPPPPPPPMDPSNFVTMMGMGVAGMPPFGMPPAPPPPPPQN

Variants of: B1
Conditions: with U2AF2, P26368
Chain of U2AF2, P26368 (P26368 whole entry): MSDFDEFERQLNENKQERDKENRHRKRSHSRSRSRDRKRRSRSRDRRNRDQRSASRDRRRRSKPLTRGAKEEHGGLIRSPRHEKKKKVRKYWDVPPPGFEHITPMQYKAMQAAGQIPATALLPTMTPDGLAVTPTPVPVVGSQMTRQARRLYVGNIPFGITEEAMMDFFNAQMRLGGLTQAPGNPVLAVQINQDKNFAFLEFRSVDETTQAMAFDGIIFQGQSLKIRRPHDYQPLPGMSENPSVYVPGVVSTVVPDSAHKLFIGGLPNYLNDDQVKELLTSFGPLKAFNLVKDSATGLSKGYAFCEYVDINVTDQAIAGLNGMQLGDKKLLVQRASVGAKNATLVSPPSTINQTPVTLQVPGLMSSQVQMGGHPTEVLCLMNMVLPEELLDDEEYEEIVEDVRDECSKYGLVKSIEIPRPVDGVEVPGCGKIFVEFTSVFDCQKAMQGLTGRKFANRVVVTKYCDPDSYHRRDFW

Variant	effect of a mutation on the interaction
S80A;S82A	decreasing interaction strength
R46D	decreasing interaction strength
I40R;I53R	decreasing interaction strength
R93E;R97E;R100E	decreasing interaction strength
W22A	disrupting interaction strength
